Reference: the supplement of paper PMC9112550, “Optimization of the antimicrobial peptide Bac7 by deep mutational scanning” (BMC Biology, 2022)

The sequences below were run on Escherichia coli TOP10 (assay: shrunken log2 fold change of peptide-encoding DNA abundance (4.5 h post-induction vs induction); higher = less antimicrobial activity (less host growth inhibition)). Conditions: time post-induction: 4.5 h; library: site-saturation at positions 5, 18, 19, 20.
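Also: peptides expressed intracellularly from a pBAD plasmid library in pooled LB shake-flask culture, induced with 0.3% L-arabinose, DNA abundance read by NGS, three biological replicates, DESeq2 with apeglm shrinkage.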

In order of rising “shrunken log2 fold change” value:
1. RRIRERPPRLPRPRPRPYWYPRP  -1.83
2. RRIRYRPPRLPRPRPRPYCNPRP  -0.515
3. RRIRYRPPRLPRPRPRPQCGPRP  -0.46
4. RRIRGRPPRLPRPRPRPYWNPRP  -0.39
5. RRIRIRPPRLPRPRPRPTFTPRP  -0.373
6. RRIRPRPPRLPRPRPRPFGRPRP  -0.314
7. RRIRPRPPRLPRPRPRPSCNPRP  -0.314
8. RRIRYRPPRLPRPRPRPTVSPRP  -0.288
9. RRIRCRPPRLPRPRPRPFGEPRP  -0.282
10. RRIRKRPPRLPRPRPRPYFVPRP  -0.264
11. RRIRYRPPRLPRPRPRPQIIPRP  -0.248
12. RRIRPRPPRLPRPRPRPLYPPRP  -0.244
13. RRIRIRPPRLPRPRPRPTKQPRP  -0.242
14. RRIRPRPPRLPRPRPRPQNPPRP  -0.216
15. RRIRYRPPRLPRPRPRPMCWPRP  -0.213
16. RRIRNRPPRLPRPRPRPCRMPRP  -0.195
17. RRIRCRPPRLPRPRPRPSYFPRP  -0.193
18. RRIRGRPPRLPRPRPRPNYHPRP  -0.179
19. RRIRIRPPRLPRPRPRPPAFPRP  -0.155
20. RRIRKRPPRLPRPRPRPVCNPRP  -0.148
21. RRIRVRPPRLPRPRPRPFIRPRP  -0.148
22. RRIRPRPPRLPRPRPRPKDFPRP  -0.141
23. RRIRLRPPRLPRPRPRPNHCPRP  -0.132
24. RRIRIRPPRLPRPRPRPWIYPRP  -0.126
25. RRIRIRPPRLPRPRPRPYGFPRP  -0.0889
26. RRIRDRPPRLPRPRPRPYFDPRP  -0.0823
27. RRIRLRPPRLPRPRPRPWMPPRP  -0.0741
28. RRIRERPPRLPRPRPRPREFPRP  -0.0736
29. RRIRMRPPRLPRPRPRPQYKPRP  -0.0699
30. RRIRPRPPRLPRPRPRPMHCPRP  -0.0698
31. RRIRIRPPRLPRPRPRPKARPRP  -0.0685
32. RRIRFRPPRLPRPRPRPCDGPRP  -0.0604
33. RRIRHRPPRLPRPRPRPERIPRP  -0.0507
34. RRIRDRPPRLPRPRPRPFCNPRP  -0.0411
35. RRIRFRPPRLPRPRPRPDFCPRP  -0.0235
36. RRIRSRPPRLPRPRPRPGIKPRP  -0.0207
37. RRIRKRPPRLPRPRPRPSDAPRP  -0.0187
38. RRIRIRPPRLPRPRPRPCIYPRP  -0.0179
39. RRIRKRPPRLPRPRPRPWKWPRP  -0.0168
40. RRIRHRPPRLPRPRPRPGTWPRP  -0.0162
41. RRIRIRPPRLPRPRPRPLEWPRP  -0.0139
42. RRIRTRPPRLPRPRPRPENYPRP  -0.00973
43. RRIRPRPPRLPRPRPRPAIMPRP  -0.00756
44. RRIRTRPPRLPRPRPRPWKVPRP  -0.00663
45. RRIRQRPPRLPRPRPRPDPRPRP  -0.00604
46. RRIRHRPPRLPRPRPRPEVAPRP  -0.00165
47. RRIRERPPRLPRPRPRPDYCPRP  -0.00145
48. RRIRMRPPRLPRPRPRPQYFPRP  0.00454
49. RRIRARPPRLPRPRPRPILQPRP  0.0186
50. RRIRGRPPRLPRPRPRPMVRPRP  0.03
51. RRIRMRPPRLPRPRPRPCRQPRP  0.0303
52. RRIRWRPPRLPRPRPRPIHEPRP  0.041
53. RRIRCRPPRLPRPRPRPGFFPRP  0.0565
54. RRIRPRPPRLPRPRPRPNFMPRP  0.109
55. RRIRPRPPRLPRPRPRPNLDPRP  0.109
56. RRIRTRPPRLPRPRPRPSETPRP  0.11
57. RRIRRRPPRLPRPRPRPQTDPRP  0.13
58. RRIRKRPPRLPRPRPRPWGMPRP  0.142
59. RRIRHRPPRLPRPRPRPMTWPRP  0.148
60. RRIRARPPRLPRPRPRPICVPRP  0.154
61. RRIRTRPPRLPRPRPRPCGGPRP  0.169
62. RRIRERPPRLPRPRPRPNCAPRP  0.172
63. RRIRWRPPRLPRPRPRPSCQPRP  0.232
64. RRIRQRPPRLPRPRPRPGATPRP  0.273
65. RRIRKRPPRLPRPRPRPQTTPRP  0.289
66. RRIRARPPRLPRPRPRPKERPRP  0.415
67. RRIRRRPPRLPRPRPRPHQKPRP  0.474
68. RRIRARPPRLPRPRPRPKFGPRP  0.581
69. RRIRFRPPRLPRPRPRPAPGPRP  0.668
70. RRIRGRPPRLPRPRPRPGWGPRP  0.73
71. RRIRQRPPRLPRPRPRPPHGPRP  1.06
72. RRIRFRPPRLPRPRPRPMREPRP  1.08
73. RRIRDRPPRLPRPRPRPEENPRP  1.11
74. RRIRMRPPRLPRPRPRPTGSPRP  1.34
75. RRIRSRPPRLPRPRPRPSAKPRP  2.05
